Assay results reported in PMC6992608, “A Single Step in vitro Bioassay Mimicking TLR4-LPS Pathway and the Role of MD2 and CD14 Coreceptors” (Frontiers in Immunology, 2020).

Molecular target: T1, Human recombinant toll like receptor 4 (rTLR4) (human, UniProt O00206 24-631)
T1 construct: toll like receptor 4 (TLR4), human, recombinant; No catalogue number or construct limits are printed; a soluble recombinant TLR4 is most likely the extracellular domain (surmised); also called MP-rTLR4; source: bought: R & D Systems
T1 sequence (O00206 24-631): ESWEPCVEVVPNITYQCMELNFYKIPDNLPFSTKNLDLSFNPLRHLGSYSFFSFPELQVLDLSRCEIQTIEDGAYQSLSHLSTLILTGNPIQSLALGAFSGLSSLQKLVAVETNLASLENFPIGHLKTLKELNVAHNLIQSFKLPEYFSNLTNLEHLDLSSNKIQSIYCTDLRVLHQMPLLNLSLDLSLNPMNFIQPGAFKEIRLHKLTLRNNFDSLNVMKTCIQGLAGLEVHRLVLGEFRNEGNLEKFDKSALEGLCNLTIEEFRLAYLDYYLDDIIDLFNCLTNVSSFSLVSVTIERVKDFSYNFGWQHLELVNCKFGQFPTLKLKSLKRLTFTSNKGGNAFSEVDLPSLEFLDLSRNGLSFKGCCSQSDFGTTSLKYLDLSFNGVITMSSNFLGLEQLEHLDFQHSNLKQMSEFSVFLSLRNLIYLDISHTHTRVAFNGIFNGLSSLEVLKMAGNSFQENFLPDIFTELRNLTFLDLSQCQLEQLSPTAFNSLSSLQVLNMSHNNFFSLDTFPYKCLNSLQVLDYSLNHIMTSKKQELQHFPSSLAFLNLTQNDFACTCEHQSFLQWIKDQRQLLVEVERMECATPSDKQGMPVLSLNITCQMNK
Assay: pull-down; rTLR4 held by its His tag on Ni-NTA magnetic beads; MD2 (Alexa Fluor 647), CD14 and LPS-Alexa Fluor 488 co-incubated in one tube in PBS pH 7.4 with 0.5% Tween 20 at RT; beads removed by magnet at 15, 30, 45, 60 and 90 min; unbound MD2 in the supernatant quantified by fluorescence, CD14 by silver staining
Details: both partners purified

stoichiometry N: 1
B1: Recombinant human myeloid differentiation-2 (MD2) protein (natural protein, UniProt Q9Y6Y9 19-160, looked up)
chain: QKQYWVCNSSDASISYTYCDKMQYPISINVNPCIELKRSKGLLHIFYIPRRDLKQLYFNLYITVNTMNLPKRKEVICRGSDDDYSFCRALKGETVNTTISFSFKGIKFSKGKYKCVVEAISGSPEEMLFCLEFVILHQPNSN
modifications: Alexa Fluor 647, on average 3 tags per MD2 molecule
notes: myeloid differentiation-2 (MD2, lymphocyte antigen 96), human, recombinant; No catalogue number is printed; source: bought: Abcam
